Earlier results as cited in paper PMC9696485.

Target: integrin α6β4 (Homo sapiens) (UniProt P23229)
UniProt P23229, sequence (P23229 24-1130, chain 1 of 2): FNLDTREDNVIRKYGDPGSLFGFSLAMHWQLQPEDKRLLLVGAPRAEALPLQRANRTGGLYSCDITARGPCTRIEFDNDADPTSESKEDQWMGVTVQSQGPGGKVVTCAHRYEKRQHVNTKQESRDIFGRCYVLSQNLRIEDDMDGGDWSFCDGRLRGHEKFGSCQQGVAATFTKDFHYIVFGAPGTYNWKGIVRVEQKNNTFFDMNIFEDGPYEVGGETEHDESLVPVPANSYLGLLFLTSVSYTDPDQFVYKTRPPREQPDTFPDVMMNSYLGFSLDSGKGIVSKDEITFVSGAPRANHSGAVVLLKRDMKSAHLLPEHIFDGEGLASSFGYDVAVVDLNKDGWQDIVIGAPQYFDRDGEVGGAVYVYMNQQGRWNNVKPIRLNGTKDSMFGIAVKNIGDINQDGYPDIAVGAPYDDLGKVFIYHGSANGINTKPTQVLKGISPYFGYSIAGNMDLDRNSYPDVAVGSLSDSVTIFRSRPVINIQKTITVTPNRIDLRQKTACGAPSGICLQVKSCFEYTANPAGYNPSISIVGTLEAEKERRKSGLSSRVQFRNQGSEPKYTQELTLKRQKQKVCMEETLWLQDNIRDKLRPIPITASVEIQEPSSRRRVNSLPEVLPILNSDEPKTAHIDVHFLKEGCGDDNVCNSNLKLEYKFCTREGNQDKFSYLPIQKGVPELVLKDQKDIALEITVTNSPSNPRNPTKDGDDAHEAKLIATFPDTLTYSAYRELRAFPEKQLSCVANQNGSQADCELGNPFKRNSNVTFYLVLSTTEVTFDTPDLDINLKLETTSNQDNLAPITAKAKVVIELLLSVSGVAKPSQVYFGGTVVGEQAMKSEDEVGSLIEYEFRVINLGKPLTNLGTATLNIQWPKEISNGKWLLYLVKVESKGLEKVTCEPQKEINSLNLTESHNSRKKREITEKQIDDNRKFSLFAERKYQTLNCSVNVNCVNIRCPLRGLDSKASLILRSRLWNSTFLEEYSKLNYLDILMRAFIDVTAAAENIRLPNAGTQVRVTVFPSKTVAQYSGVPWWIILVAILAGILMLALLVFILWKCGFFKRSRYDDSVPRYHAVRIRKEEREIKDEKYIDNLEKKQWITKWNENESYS
UniProt P23229, sequence (P16144 28-1822, chain 2 of 2, further chain): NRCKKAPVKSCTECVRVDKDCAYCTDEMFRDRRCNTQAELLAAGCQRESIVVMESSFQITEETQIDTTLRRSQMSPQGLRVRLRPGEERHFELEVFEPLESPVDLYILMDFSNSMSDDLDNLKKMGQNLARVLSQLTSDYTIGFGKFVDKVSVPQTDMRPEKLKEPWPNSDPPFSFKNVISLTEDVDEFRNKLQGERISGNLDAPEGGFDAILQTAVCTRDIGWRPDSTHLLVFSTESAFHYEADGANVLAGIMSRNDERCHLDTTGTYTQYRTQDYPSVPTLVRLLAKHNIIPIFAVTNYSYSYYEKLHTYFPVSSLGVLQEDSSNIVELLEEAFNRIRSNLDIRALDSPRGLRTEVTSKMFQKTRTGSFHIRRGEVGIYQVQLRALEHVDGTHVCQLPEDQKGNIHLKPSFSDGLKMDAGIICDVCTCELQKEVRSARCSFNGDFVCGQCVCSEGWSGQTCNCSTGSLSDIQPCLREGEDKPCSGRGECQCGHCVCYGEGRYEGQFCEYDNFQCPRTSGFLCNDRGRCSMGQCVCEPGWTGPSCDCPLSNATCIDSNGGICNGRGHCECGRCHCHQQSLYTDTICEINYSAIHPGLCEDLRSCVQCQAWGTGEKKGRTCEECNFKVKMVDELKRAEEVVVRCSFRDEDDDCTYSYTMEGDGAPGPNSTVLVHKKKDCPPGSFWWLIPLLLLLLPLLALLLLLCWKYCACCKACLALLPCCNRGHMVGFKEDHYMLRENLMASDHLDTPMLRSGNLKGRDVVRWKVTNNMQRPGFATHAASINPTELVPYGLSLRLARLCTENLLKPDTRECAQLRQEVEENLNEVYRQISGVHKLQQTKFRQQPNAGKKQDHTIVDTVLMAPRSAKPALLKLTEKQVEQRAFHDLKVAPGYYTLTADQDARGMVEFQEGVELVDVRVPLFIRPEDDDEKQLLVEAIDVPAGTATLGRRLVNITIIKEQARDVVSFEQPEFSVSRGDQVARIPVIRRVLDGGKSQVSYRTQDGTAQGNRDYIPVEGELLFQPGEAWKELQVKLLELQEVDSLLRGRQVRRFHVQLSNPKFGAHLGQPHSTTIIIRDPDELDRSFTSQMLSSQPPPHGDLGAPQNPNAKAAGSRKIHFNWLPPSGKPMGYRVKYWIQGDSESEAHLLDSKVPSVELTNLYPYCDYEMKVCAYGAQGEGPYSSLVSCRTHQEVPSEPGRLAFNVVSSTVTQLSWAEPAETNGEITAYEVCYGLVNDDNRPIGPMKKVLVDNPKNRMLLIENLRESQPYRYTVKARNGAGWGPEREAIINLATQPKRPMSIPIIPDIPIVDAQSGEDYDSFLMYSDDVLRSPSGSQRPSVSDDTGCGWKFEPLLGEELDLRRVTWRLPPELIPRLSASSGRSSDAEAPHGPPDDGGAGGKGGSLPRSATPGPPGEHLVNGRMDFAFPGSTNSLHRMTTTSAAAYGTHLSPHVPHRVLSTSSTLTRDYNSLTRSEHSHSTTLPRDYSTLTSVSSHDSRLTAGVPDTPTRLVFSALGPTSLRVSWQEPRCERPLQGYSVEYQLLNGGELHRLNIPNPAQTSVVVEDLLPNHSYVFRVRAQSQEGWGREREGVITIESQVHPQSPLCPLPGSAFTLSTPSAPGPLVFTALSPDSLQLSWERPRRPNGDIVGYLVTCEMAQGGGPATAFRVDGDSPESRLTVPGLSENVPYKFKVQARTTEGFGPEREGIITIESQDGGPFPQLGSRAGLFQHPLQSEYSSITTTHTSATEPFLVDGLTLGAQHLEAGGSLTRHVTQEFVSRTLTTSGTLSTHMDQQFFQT

- Kd: 2.5 µM
Substance: AG86 laminin peptide
